Measurements: paper PMC10515491, “Intrinsically Disordered Flanking Regions Increase the Affinity of a Transcriptional Coactivator Interaction across Vertebrates” (Biochemistry, 2023)

B1: H. sapiens CBP NCBD domain, Trp variant (H_sapiens_NCBD 2058-2116, Tyr2108 to Trp) (domain or fragment)
chain: GSPPRSISPSALQDLLRTLKSPSSPQQQQQVLNILKSNPQLMAAFIKQRTAKWVANQPGMQ
notes: Gly-Ser remains at the N-terminus after thrombin cleavage; Trp introduced at Tyr2108 for the kinetic studies; not shown: His6, N-terminal, cleaved; lipo domain, N-terminal, cleaved

Tests used:
[1] = target: C. milii CBP NCBD domain, Trp variant (C_milli_NCBD 2031-2089) (Callorhinchus milii); assay: stopped-flow spectroscopy; Trp variant of NCBD of the same species mixed with CID or N-CID-C; kon from the slope of kobs against CID concentration; koff from displacement of the complex by an excess of wild-type NCBD (average of three experiments); Kd = koff/kon; 20 mM sodium phosphate pH 7.40, 150 mM NaCl, 4 °C; double exponential fit for human and C. milii NCOA3, the high kobs used for Kd
[2] = target: S. purpuratus NCBD (nuclear coactivator binding domain of CBP), wild type (S. purpuratus); assay: ITC; MicroCal iTC200, 25 °C, 20 mM sodium phosphate pH 7.40, 150 mM NaCl
[3] = target: T1, H. sapiens NCOA1 N-CID-C (H_sapiens_NCOA1_N-CID-C_885-1004) (H. sapiens, UniProt Q15788 885-1004); assay: stopped-flow spectroscopy; Trp variant of NCBD of the same species mixed with CID or N-CID-C; kon from the slope of kobs against CID concentration; koff from displacement of the complex by an excess of wild-type NCBD (average of three experiments); Kd = koff/kon; 20 mM sodium phosphate pH 7.40, 150 mM NaCl, 4 °C; double exponential fit for human and C. milii NCOA3, the high kobs used for Kd; conditions: both partners purified
T1 construct: Gly-Ser remains at the N-terminus after thrombin cleavage; also called CID with flanking regions; Src1; not shown: His6, N-terminal, cleaved; lipo domain, N-terminal, cleaved
T1 sequence: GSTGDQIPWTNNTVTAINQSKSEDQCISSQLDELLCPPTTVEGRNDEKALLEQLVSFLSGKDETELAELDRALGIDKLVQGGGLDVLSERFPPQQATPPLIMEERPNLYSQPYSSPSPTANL

[4] = target: T2, D. rerio NCBD (nuclear coactivator binding domain of CBP), Trp variant (D. rerio)
T2 chain: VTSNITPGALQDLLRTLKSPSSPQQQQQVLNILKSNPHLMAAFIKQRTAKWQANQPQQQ

[5] = target: D. rerio CBP NCBD domain, Trp variant (D_rerio_NCBD 2064-2122) (Danio rerio); assay: stopped-flow spectroscopy; Trp variant of NCBD of the same species mixed with CID or N-CID-C; kon from the slope of kobs against CID concentration; koff from displacement of the complex by an excess of wild-type NCBD (average of three experiments); Kd = koff/kon; 20 mM sodium phosphate pH 7.40, 150 mM NaCl, 4 °C; double exponential fit for human and C. milii NCOA3, the high kobs used for Kd
[6] = target: T3, C. milii NCBD (nuclear coactivator binding domain of CBP), Trp variant, first four residues truncated (C. milii)
T3 chain: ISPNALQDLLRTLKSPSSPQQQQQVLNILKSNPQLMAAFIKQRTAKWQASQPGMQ

[7] = target: H. sapiens NCBD (nuclear coactivator binding domain of CBP), Trp variant (H. sapiens, UniProt Q92793 2058-2116, a Trp was introduced at the position corresponding to Tyr2108 in human NCBD)
[8] = target: B1; assay: stopped-flow spectroscopy; Trp variant of NCBD of the same species mixed with CID or N-CID-C; kon from the slope of kobs against CID concentration; koff from displacement of the complex by an excess of wild-type NCBD (average of three experiments); Kd = koff/kon; 20 mM sodium phosphate pH 7.40, 150 mM NaCl, 4 °C; double exponential fit for human and C. milii NCOA3, the high kobs used for Kd; conditions: both partners purified
[9] = target: T4, H. sapiens NCBD (nuclear coactivator binding domain of CBP), Trp variant (H. sapiens, UniProt Q92793 2058-2116, a Trp was introduced at the position corresponding to Tyr2108 in human NCBD); assay: stopped-flow spectroscopy; Trp variant of NCBD mixed with CID at varied concentration; kon from the slope of kobs, koff from displacement with excess wild-type NCBD, Kd = koff/kon; 20 mM sodium phosphate pH 7.40, 150 mM NaCl, 4 °C; conditions: both partners purified
T4 construct: Gly-Ser remains at the N-terminus after thrombin cleavage; also called human NCBD; Trp variant of NCBD; source: expression construct ordered from Genscript; not shown: 6 His-tagged lipo domain, N-terminal, cleaved

[10] = target: T5, S. purpuratus NCOA N-CID-C (CID with N- and C-terminal flanking regions) (S. purpuratus, UniProt A0A7M7N2F3 1037-1156); assay: ITC; MicroCal iTC200, 25 °C, 20 mM sodium phosphate pH 7.40, 150 mM NaCl; conditions: both partners purified
T5 construct: Gly-Ser remains at the N-terminus after thrombin cleavage; the Uniprot entry W4YZZ7 was withdrawn; annotated in NCBI as neurogenic protein mastermind; also called long version; source: expression construct ordered from Genscript; not shown: 6 His-tagged lipo domain, N-terminal, cleaved
T5 sequence: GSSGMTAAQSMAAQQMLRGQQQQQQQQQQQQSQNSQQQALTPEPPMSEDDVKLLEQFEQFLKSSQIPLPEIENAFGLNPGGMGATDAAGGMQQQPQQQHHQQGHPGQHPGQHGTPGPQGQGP

Molecule: C. milii NCOA3 CID (C_milli_NCOA3_CID_1076-1117) (domain or fragment)
- Kd [1]: 260 nM
- koff [1]: 6.53 s⁻¹

Molecule: C. milii NCOA3 N-CID-C (C_milli_NCOA3_N-CID-C_1037-1156) (domain or fragment)
- Kd [1]: 88 nM
- koff [1]: 3.78 s⁻¹

Molecule: S. purpuratus NCOA CID (minimal region) (domain or fragment)
- Kd [2]: 5000 nM

Molecule: B1
- Kd [3]: 6.02 nM
- koff [3]: 0.436 ± 0.0476 s⁻¹

B2: D. rerio NCOA3 N-CID-C (CID with N- and C-terminal flanking regions) (domain or fragment)
chain: GSPPQSPSWPDSGMGMEGPPSANRLPINSPLDELLAPPSTSEGQSDERALLDQLDSLLNNTDVIALEEIDRALGIPDLINQGHSSDQPPPSDPFSGPCLGPDSSMGMEPPKAMYGQGYPGPP
- Kd [4]: 170 nM
- Kd [5]: 168 nM
- koff [5]: 5.34 s⁻¹

Molecule: GPGSASEGPADEGALLSQLYSALKDFDGLEEIDRALGIPALVGQAQ (domain or fragment) [D. rerio NCOA2 CID (minimal region)]
- Kd [4]: 150 nM
- Kd [5]: 146 nM
- koff [5]: 5.06 s⁻¹

Molecule: GSEGQSDERALLDQLDSLLNNTDVIALEEIDRALGIPDLINQGH (domain or fragment) [D. rerio NCOA3 CID (minimal region)]
- Kd [4]: 300 nM
- Kd [5]: 300 nM
- koff [5]: 7.29 s⁻¹

Molecule: EAQSDEKALLDQLDTLLSNADEMGLEEIDRALGIPDLISQVQ (domain or fragment) [C. milii NCOA3 CID (minimal region)]
- Kd [6]: 260 nM

B3: H. sapiens NCOA1 CID (H_sapiens_NCOA1_CID_924-965) (domain or fragment)
chain: GSEGRNDEKALLEQLVSFLSGKDETELAELDRALGIDKLVQGGG
notes: Gly-Ser remains at the N-terminus after thrombin cleavage; also called Src1; not shown: His6, N-terminal, cleaved; lipo domain, N-terminal, cleaved
- Kd [7]: 56 nM
- Kd [8]: 55.7 nM
- koff [8]: 1.59 ± 0.153 s⁻¹

B4: H. sapiens NCOA1 N-CID-C (CID with N- and C-terminal flanking regions) (domain or fragment)
chain: GSTGDQIPWTNNTVTAINQSKSEDQCISSQLDELLCPPTTVEGRNDEKALLEQLVSFLSGKDETELAELDRALGIDKLVQGGGLDVLSERFPPQQATPPLIMEERPNLYSQPYSSPSPTANL
notes: Gly-Ser remains at the N-terminus after thrombin cleavage; also called NCOA1 (Src1); source: expression construct ordered from Genscript; not shown: 6 His-tagged lipo domain, N-terminal, cleaved
- Kd [7]: 6 nM
- fold increase in affinity with flanking regions against the CID without them [9]: 9 fold

B5: S. purpuratus NCBD (nuclear coactivator binding domain of CBP), wild type (domain or fragment)
chain: GSQRNNAPQQALQQLLQTLKSPHSPQQQKQVLTILKSNPQLMAAFIKQRSEHQQRMQQQQQ
notes: Gly-Ser remains at the N-terminus after thrombin cleavage; CBP, S. purpuratus (purple sea urchin), NCBD domain, residues 2316-2374 of Uniprot A0A7M7HNR9; the Trp variant is told only for the stopped-flow experiments; source: expression construct ordered from Genscript; not shown: 6 His-tagged lipo domain, N-terminal, cleaved
- Kd [10]: 8000 nM

B6: D. rerio NCOA1 N-CID-C (CID with N- and C-terminal flanking regions) (domain or fragment)
chain: GSEPMTFDNSLANQTQAPLSSPQEQCVPCPLDEMLCPPTTPEGRNDEKALLEQLVTFLSHTDESELAELDRALGIDKIVQSGCLEPVTQTPFPQSQPPTPVPLDPKLPSYPSQFPTSPSQFP
- Kd [4]: 15 nM
- Kd [5]: 14.7 nM
- koff [5]: 0.716 s⁻¹

B7: C. milii NCOA3 N-CID-C (CID with N- and C-terminal flanking regions) (domain or fragment)
chain: QTTSWSDNVLQMEQVHSGGQGRQPFGGSLDDLLCPPTTAEAQSDEKALLDQLDTLLSNADEMGLEEIDRALGIPDLISQVQPLEAHADQFSVQDTALMLEQKAMYGQQFNSQAGPMQGCY
- Kd [6]: 88 nM

Molecule: GSEGRNDEKALLEQLVTFLSHTDESELAELDRALGIDKIVQSGC (domain or fragment) [D. rerio NCOA1 CID (minimal region)]
- Kd [4]: 44 nM
- Kd [5]: 44.1 nM
- koff [5]: 1.54 s⁻¹

B8: D. rerio NCOA2 N-CID-C (CID with N- and C-terminal flanking regions) (domain or fragment)
chain: GPGSPPNQTAPWPDSVMPIEPVPFGNQSSSMYGGSQEDVLCPPASEGPADEGALLSQLYSALKDFDGLEEIDRALGIPALVGQAQPVEQDQFPGQDPSMMMDQKPPMYGQQQYASSPANMQQAG
- Kd [4]: 82 nM
- Kd [5]: 81.9 nM
- koff [5]: 3.51 s⁻¹
